This is an account of results in US20250237662A1.

In test [1] the target is humanized development candidate monoclonal antibody IgG4 (hIgG4). Put plainly: Gyrolab, capture reagent, hIgG4 200 ng/ml, against the blank.
Test [2] shares this target. In words: Gyrolab, capture reagent, hIgG4 1.6 ng/ml, against the blank.
Test [3] has the same target. Put plainly: Gyrolab, capture reagent, hIgG4 40 ng/ml, against the blank.
Test [4] has the same target. In words: Gyrolab, capture reagent, hIgG4 5000 ng/ml.
Test [5] has the same target. In words: Gyrolab, capture reagent, hIgG4 8 ng/ml.
Test [6] shares this target. In words: Gyrolab, capture reagent, hIgG4 1.6 ng/ml.
Test [7] shares this target. In words: Gyrolab, capture reagent, hIgG4 1000 ng/ml, against the blank.
For test [8] the target is unchanged. In words: Gyrolab, capture reagent, hIgG4 0.32 ng/ml.
The target is the same in test [9]. In words: Gyrolab, capture reagent, hIgG4 200 ng/ml.
Test [10] has the same target. In words: Gyrolab, capture reagent, hIgG4 5000 ng/ml, against the blank.
For test [11] the target is unchanged. Put plainly: Gyrolab, capture reagent, hIgG4 8 ng/ml, against the blank.
For test [12] the target is unchanged. Put plainly: Gyrolab, capture reagent, hIgG4 40 ng/ml.
For test [13] the target is unchanged. Put plainly: Gyrolab, capture reagent, hIgG4 1000 ng/ml.
Test [14] shares this target. Put plainly: Gyrolab, capture reagent, hIgG4 0.32 ng/ml, against the blank.
For test [15], the target named is drug: a monoclonal antibody of human IgG4 isotype (PandA assay). In words: PandA assay, mAb 0.5 ug/ml in monkey plasma.
Test [16] has the same target. In words: PandA assay, mAb 1 ug/ml in monkey plasma.
For test [17] the target is unchanged. Put plainly: PandA assay (PEG precipitation, acid dissociation, MSD plate, sulfo-TAG-drug), mAb 5 ug/ml in monkey plasma.
Test [18] shares this target. Put plainly: PandA assay, mAb 0.75 ug/ml in monkey plasma.
Test [19] shares this target. In words: PandA assay, signal to noise against the negative control.
For test [20], the target named is humanized development candidate monoclonal antibody IgG4 (hIgG4). Put plainly: Gyrolab, mAb as capture, hIgG4 0.32 ng/ml.
Test [21] shares this target. In words: Gyrolab, mAb as capture, hIgG4 1.6 ng/ml.
For test [22] the target is unchanged. In words: Gyrolab, mAb as capture, hIgG4 5000 ng/ml.
Test [23] has the same target. In words: Gyrolab, mAb as capture, hIgG4 40 ng/ml.
Test [24] shares this target. Put plainly: Gyrolab, mAb as capture, hIgG4 1000 ng/ml.
Test [25] deals with humanized therapeutic monoclonal antibody IgG1 (hIgG1). In words: SPR (Biacore T200), under the same conditions as the rabbit clones, antigen 80-0 nM, 1:1 fit. For orientation: SPR reads the build-up and loss of mass on a sensor chip optically.
The target of test [26] is humanized development candidate monoclonal antibody IgG4 (hIgG4). Described as above.
The target is the same in test [27]. In words: Gyrolab, mAb as capture, hIgG4 8 ng/ml.
The target is the same in test [28]. Put plainly: Gyrolab, mAb as capture, hIgG4 200 ng/ml.

What is called Kd is the equilibrium constant for the complex coming apart.

As to “Gyrolab generic PK assay capture reagent”, the S/B stood at 20.8 in test [1]; 1.2 in test [2]; 5.7 in test [3]; 59 in test [7]; 103 in [10]; 2.1 in [11]. For the same substance, the S/B in test [14] is 1. Further, the Av. Resp. in test [4] came to 468; in test [5] it was 9.3; in test [6] it was 5.3; in [8] it was 4.6; in [9], 94.1; in test [12], 26.1. Moreover, in [13], the Av. Resp. is 267.

In the case of “mouse anti-Fc monoclonal antibody clone JDC-10 (Southern Biotech, Cat. No. 9040-01)”, the ECL Signal was determined as 130 in test [15], 182 in [16], 756 in [17] and 148 in test [18]. The substance further gave a S/N in test [19] of 1.37.

For “mouse anti-human IgG monoclonal antibody MCA5748G (Bio-Rad)”, the Av. Resp. in test [20] worked out at 13.6; in test [21], 14.2; in test [22], 283; in test [23] it was 33.8; in test [24] it was 214; in test [27], 18.4. This substance displayed an Av. Resp. in test [28] of 86.7. In addition, the Kd in test [25] stood at 1.82 nM; in [26] it was 1.57 nM.
